Assay results: publication PMC11018115, “The EIN3 transcription factor GmEIL1 improves soybean resistance to Phytophthora sojae”

T1: GmEIL1 (Glycine max (cv. Suinong 10), UniProt A0A0R4J4Z8 1-610)
T1 sequence: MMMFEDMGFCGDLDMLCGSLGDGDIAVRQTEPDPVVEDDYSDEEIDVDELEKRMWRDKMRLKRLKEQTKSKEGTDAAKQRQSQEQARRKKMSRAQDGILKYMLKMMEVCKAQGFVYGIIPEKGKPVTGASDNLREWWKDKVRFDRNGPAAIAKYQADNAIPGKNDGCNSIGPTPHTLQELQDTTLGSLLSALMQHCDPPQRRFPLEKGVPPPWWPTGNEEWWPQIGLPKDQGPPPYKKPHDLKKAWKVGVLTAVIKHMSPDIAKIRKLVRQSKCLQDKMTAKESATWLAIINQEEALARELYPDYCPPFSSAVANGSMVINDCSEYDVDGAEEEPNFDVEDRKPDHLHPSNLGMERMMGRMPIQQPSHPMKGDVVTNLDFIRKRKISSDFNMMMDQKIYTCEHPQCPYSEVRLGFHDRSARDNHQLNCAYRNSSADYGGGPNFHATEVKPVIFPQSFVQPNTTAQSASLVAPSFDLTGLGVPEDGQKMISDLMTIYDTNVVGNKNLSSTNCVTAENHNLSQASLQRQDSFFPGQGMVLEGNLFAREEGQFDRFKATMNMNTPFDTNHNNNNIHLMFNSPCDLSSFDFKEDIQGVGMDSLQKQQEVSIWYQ

B1: EBS probe (dsDNA)
DNA 1: GTTGTTTGGGATTCAAGGGGCATGTATCTTGAATCC
DNA 2: GGATTCAAGATACATGCCCCTTGAATCCCAAACAAC
B2: mEBS probe (dsDNA)
DNA 1: GTTGTTTGGGATTCAAGGGGCCCCCCTCTTGAATCC
DNA 2: GGATTCAAGAGGGGGGCCCCTTGAATCCCAAACAAC

Biological target: T1, GmEIL1
Experiment: EMSA; EMSA after Garner and Revzin (1981), chemiluminescent detection; buffer, salt, pH and temperature not stated
Settings: protein: recombinant; chain copies: 2; label: digoxigenin-ddUTP (Methods, legend); text also says biotin

| Binder | binding result |
| --- | --- |
| B1 | binds |
| B2 | no binding |
